Test results as given in paper PMC7689490, “Designed CXCR4 mimic acts as a soluble chemokine receptor that blocks atherogenic inflammation by agonist-specific targeting” (Nature Communications, 2020).
Values joined by “and” are separate entries in the source; they are usually repeats but may differ in a detail not shown here. Equal values may be shown once.

Legend:
[1] = target: Fluos-ECL2 (fluorescein-labelled ECL2[182–196] peptide of CXCR4) (human) (UniProt P61073); assay: other fluorescence titration; Fluos-labelled CXCR4 ectodomain peptide at 5 nM titrated with unlabelled MIF, MIF(10xAla), CXCL12 or MIF peptide fragments; 10 mM sodium phosphate, pH 7.4, 1% HFIP; emission at 522 nm; apparent KD, 1/1 binding model
Fluos-msR4M-L1 (human) [2] = target: Fluos-msR4M-L1 (human) (UniProt P61073); assay: other fluorescence titration; 5 nM Fluos-labeled ectodomain peptide titrated with unlabeled MIF, MIF peptide or CXCL12; 10 mM sodium phosphate, pH 7.4, 1% HFIP; emission at 522 nm; apparent KD, 1/1 binding model; one constant for each of three curves
[3] = target: 5(6)-carboxytetramethylrhodamine (TAMRA)-msR4M-L1 (human) (UniProt P61073); assay: MST; 100 nM TAMRA-msR4M-L1 titrated with MIF or CXCL12; 20 mM sodium phosphate, pH 7.2, Tween-20; 37 °C; apparent KD
Fluos-msR4M-L1 (human) [4] = target: Fluos-msR4M-L1 (human) (UniProt P61073); assay: fluorescence polarisation; 5 nM Fluos-msR4M-L1 titrated with unlabeled MIF (0.5 to 277.5 nM); 10 mM sodium phosphate, pH 7.2, 0.5% HFIP; RT; apparent KD

Substance | Kd [1] [µM] | Kd (Fluos-msR4M-L1 (human) [2]) | Kd [3] | Kd (Fluos-msR4M-L1 (human) [4])
macrophage migration-inhibitory factor (MIF), recombinant human, unlabelled (from UniProt P14174 1-115) (natural protein) | > 5 | – | – | –
MIF peptide 54–80 (from UniProt P14174 54-80) | – | 0.0866 µM and 0.0597 µM and 0.0653 µM | – | –
macrophage migration-inhibitory factor (MIF), recombinant human (from UniProt P14174 1-115) (natural protein) | – | 0.0447 µM and 0.0404 µM and 0.0369 µM | 0.0517 µM and 0.12 µM and 0.0601 µM | 0.0241 µM and 0.0193 µM and 0.0299 µM
MIF peptide 38–80 (from UniProt P14174 38-80) | – | 0.0646 µM and 0.049 µM and 0.0577 µM | – | –
